From patent publication US20260116937A1 (CHARACTER BIOSCIENCES, published 2026)

Molecular target: T1, human C3b (human, UniProt P01024 749-1663; P01024 23-667)
T1 construct: Coated on ELISA plates
Assay: ELISA on C3b-coated plates, absorbance at 450 nm
Experimental: A representative example of an FHL-1 engineered variant (e.g., a polypeptide of SEQ ID NO: 21) was compared with CFH and FHL-1 for C3b binding activity as presented in FIGS. 14A and 14B. […] In general, the data was derived from measuring binding on C3b coated plates via ELISA for test proteins (either as purified proteins or as culture supernatants from CHO cells transfected with expression vectors encoding test proteins). C3b binding activity was measured via absorbance at 450 nm. Mean+/−SEM absorbance values are shown with nonlinear sigmoidal 4PL fit. Of note, the FHL-1 engineered variant (e.g., Var 004, SEQ ID NO: 21) has increased C3b binding activity over native FHL-1.

T1 sequence (P01024 749-1663, chain 1 of 2): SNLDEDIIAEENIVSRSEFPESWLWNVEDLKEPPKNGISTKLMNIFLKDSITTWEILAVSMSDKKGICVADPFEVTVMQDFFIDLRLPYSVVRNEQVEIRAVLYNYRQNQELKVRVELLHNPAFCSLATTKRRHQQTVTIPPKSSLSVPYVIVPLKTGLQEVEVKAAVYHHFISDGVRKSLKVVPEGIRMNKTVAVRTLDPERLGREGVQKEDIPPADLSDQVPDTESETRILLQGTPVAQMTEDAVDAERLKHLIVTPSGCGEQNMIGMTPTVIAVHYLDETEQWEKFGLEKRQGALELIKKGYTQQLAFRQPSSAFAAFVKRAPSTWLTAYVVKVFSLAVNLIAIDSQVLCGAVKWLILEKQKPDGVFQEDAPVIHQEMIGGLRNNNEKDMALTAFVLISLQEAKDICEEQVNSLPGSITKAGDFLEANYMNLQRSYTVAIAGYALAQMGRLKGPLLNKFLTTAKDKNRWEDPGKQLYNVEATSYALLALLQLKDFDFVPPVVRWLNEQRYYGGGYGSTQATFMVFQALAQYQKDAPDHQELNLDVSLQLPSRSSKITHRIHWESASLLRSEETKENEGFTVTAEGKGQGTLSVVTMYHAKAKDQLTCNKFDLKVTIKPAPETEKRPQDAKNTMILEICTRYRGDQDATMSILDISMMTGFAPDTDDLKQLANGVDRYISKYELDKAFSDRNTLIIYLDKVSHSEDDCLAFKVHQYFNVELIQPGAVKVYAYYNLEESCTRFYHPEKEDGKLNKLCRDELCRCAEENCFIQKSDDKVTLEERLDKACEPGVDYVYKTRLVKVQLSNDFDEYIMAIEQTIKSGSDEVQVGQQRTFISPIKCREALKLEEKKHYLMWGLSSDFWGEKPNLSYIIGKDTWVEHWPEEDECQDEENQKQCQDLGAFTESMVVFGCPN
T1 sequence (P01024 23-667, chain 2 of 2): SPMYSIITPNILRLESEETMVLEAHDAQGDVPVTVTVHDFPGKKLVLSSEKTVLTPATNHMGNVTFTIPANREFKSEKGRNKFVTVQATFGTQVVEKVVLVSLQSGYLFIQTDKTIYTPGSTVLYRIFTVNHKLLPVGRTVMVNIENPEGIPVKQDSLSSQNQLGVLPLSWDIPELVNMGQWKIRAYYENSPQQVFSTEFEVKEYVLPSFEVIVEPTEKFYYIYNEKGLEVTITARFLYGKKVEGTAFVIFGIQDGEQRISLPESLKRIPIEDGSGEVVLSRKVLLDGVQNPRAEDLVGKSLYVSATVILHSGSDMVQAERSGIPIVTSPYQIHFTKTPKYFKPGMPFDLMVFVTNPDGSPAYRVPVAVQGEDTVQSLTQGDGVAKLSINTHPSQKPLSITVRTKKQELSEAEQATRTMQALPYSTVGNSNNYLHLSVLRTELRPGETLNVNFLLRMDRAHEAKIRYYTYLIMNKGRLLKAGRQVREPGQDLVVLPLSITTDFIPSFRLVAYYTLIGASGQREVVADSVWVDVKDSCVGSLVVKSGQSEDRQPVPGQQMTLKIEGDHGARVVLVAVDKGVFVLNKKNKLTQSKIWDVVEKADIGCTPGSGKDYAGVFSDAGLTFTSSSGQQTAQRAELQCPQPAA

B1: complement factor H (CFH) (other)
chain: EDCNELPPRRNTEILTGSWSDQTYPEGTQAIYKCRPGYRSLGNVIMVCRKGEWVALNPLRKCQKRPCGHPGDTPFGTFTLTGGNVFEYGVKAVYTCNEGYQLLGEINYRECDTDGWTNDIPICEVVKCLPVTAPENGKIVSSAMEPDREYHFGQAVRFVCNSGYKIEGDEEMHCSDDGFWSKEKPKCVEISCKSPDVINGSPISQKIIYKENERFQYKCNMGYEYSERGDAVCTESGWRPLPSCEEKSCDNPYIPNGDYSPLRIKHRTGDEITYQCRNGFYPATRGNTAKCTSTGWIPAPRCTLKPCDYPDIKHGGLYHENMRRPYFPVAVGKYYSYYCDEHFETPSGSYWDHIHCTQDGWSPAVPCLRKCYFPYLENGYNQNYGRKFVQGKSIDVACHPGYALPKAQTTVTCMENGWSPTPRCIRVKTCSKSSIDIENGFISESQYTYALKEKAKYQCKLGYVTADGETSGSITCGKDGWSAQPTCIKSCDIPVFMNARTKNDFTWFKLNDTLDYECHDGYESNTGSTTGSIVCGYNGWSDLPICYERECELPKIDVHLVPDRKKDQYKVGEVLKFSCKPGFTIVGPNSVQCYHFGLSPDLPICKEQVQSCGPPPELLNGNVKEKTKEEYGHSEVVEYYCNPRFLMKGPNKIQCVDGEWTTLPVCIVEESTCGDIPELEHGWAQLSSPPYYYGDSVEFNCSESFTMIGHRSITCIHGVWTQLPQCVAIDKLKKCKSSNLIILEEHLKNKKEFDHNSNIRYRCRGKEGWIHTVCINGRWDPEVNCSMAQIQLCPPPPQIPNSHNMTTTLNYRDGEKVSVLCQENYLIQEGEEITCKDGRWQSIPLCVEKIPCSQPPQIEHGTINSSRSSQESYAHGTKLSYTCEGGFRISEENETTCYMGKWSSPPQCEGLPCKSPPEISHGVVAHMSDSYQYGEEVTYKCFEGFGIDGPAIAKCLGEKWSHPPSCIKTDCLSLPSFENAIPMGEKKDVYKAGEQVTYTCATYYKMDGASNVTCINSRWTGRPTCRDTSCVNPPTVQNAYIVSRQMSKYPSGERVRYQCRSPYEMFGDEEVMCLNGNWTEPPQCKDSTGKCGPPPPIDNGDITSFPLSVYAPASSVEYQCQNLYQLEGNKRITCRNGQWSEPPKCLHPCVISREIMENYNIALRWTAKQKLYSRTGESVEFVCKRGYRLSSRSHTLRTTCWDGKLEYPTCAKR
notes: Purified CFH used as control
  binding result: binds

B2: Var004 (engineered variant of FHL-1) (designed binder)
chain: EDCNELPPRRNTEILTGSWSDQTYPEGTQAIYKCRPGYRSLGNVIMVCRKGEWVALNPLRKCQKRPCGHPGDTPFGTFTLTGGNVFEYGVKAVYTCNEGYQLLGEINYRECDTDGWTNDIPICEVVKCLPVTAPENGKIVSSAMEPDREYHFGQAVRFVCNSGYKIEGDEEMHCSDDGFWSKEKPKCVEISCKSPDVINGSPISQKIIYKENERFQYKCNMGYEYSERGDAVCTESGWRPLPSCEEKSCDNPYIPNGDYSPLRIKHRTGDEITYQCRNGFYPATRGNTAKCTSTGWIPAPRCTLKPCDYPDIKHGGLYHENMRRPYFPVAVGKYYSYYCDEHFETPSGSYWDHIHCTQDGWSPAVPCLRKCYFPYLENGYNQNYGRKFVQGKSIDVACHPGYALPKAQTTVTCMENGWSPTPRCIRVSGGGGSGGGGSGGGGSTLKPCDYPDIKHGGLYHENMRRPYFPVAVGKYYSYYCDEHFETPSGSYWDHIHCTQDGWSPAVPCLRKCYFPYLENGYNQNYGRKFVQGKSIDVACHPGYALPKAQTTVTCMENGWSPTPRCIRVSFTL
notes: Tested as purified protein or as CHO culture supernatant; also called FHL-1 engineered variant
  binding result: binds

B3: Factor H-like protein 1 (FHL-1) (other)
chain: EDCNELPPRRNTEILTGSWSDQTYPEGTQAIYKCRPGYRSLGNVIMVCRKGEWVALNPLRKCQKRPCGHPGDTPFGTFTLTGGNVFEYGVKAVYTCNEGYQLLGEINYRECDTDGWTNDIPICEVVKCLPVTAPENGKIVSSAMEPDREYHFGQAVRFVCNSGYKIEGDEEMHCSDDGFWSKEKPKCVEISCKSPDVINGSPISQKIIYKENERFQYKCNMGYEYSERGDAVCTESGWRPLPSCEEKSCDNPYIPNGDYSPLRIKHRTGDEITYQCRNGFYPATRGNTAKCTSTGWIPAPRCTLKPCDYPDIKHGGLYHENMRRPYFPVAVGKYYSYYCDEHFETPSGSYWDHIHCTQDGWSPAVPCLRKCYFPYLENGYNQNYGRKFVQGKSIDVACHPGYALPKAQTTVTCMENGWSPTPRCIRVSFTL
notes: Control protein, purified or as CHO culture supernatant; also called native FHL-1
  binding result: binds
